Values quoted from earlier work in PMC5603210.

Biological target: von Willebrand factor (Homo sapiens) (UniProt P04275)

- Kd: 0.5 nM
Substance: Factor VIII (from UniProt P00451)
